Data as given in IntAct's records for PubMed 22139370.

B1: Cryptochrome-2 (Arabidopsis thaliana (Mouse-ear cress)), Q96524 (parent)
chain: MKMDKKTIVWFRRDLRIEDNPALAAAAHEGSVFPVFIWCPEEEGQFYPGRASRWWMKQSLAHLSQSLKALGSDLTLIKTHNTISAILDCIRVTGATKVVFNHLYDPVSLVRDHTVKEKLVERGISVQSYNGDLLYEPWEIYCEKGKPFTSFNSYWKKCLDMSIESVMLPPPWRLMPITAAAEAIWACSIEELGLENEAEKPSNALLTRAWSPGWSNADKLLNEFIEKQLIDYAKNSKKVVGNSTSLLSPYLHFGEISVRHVFQCARMKQIIWARDKNSEGEESADLFLRGIGLREYSRYICFNFPFTHEQSLLSHLRFFPWDADVDKFKAWRQGRTGYPLVDAGMRELWATGWMHNRIRVIVSSFAVKFLLLPWKWGMKYFWDTLLDADLECDILGWQYISGSIPDGHELDRLDNPALQGAKYDPEGEYIRQWLPELARLPTEWIHHPWDAPLTVLKASGVELGTNYAKPIVDIDTARELLAKAISRTREAQIMIGAAPDEIVADSFEALGANTIKEPGLCPSVSSNDQQVPSAVRYNGSKRVKPEEEEERDMKKSRGFDERELFSTAESSSSSSVFFVSQSCSLASEGKNLEGIQDSSDQITTSLGKNGCK
partner: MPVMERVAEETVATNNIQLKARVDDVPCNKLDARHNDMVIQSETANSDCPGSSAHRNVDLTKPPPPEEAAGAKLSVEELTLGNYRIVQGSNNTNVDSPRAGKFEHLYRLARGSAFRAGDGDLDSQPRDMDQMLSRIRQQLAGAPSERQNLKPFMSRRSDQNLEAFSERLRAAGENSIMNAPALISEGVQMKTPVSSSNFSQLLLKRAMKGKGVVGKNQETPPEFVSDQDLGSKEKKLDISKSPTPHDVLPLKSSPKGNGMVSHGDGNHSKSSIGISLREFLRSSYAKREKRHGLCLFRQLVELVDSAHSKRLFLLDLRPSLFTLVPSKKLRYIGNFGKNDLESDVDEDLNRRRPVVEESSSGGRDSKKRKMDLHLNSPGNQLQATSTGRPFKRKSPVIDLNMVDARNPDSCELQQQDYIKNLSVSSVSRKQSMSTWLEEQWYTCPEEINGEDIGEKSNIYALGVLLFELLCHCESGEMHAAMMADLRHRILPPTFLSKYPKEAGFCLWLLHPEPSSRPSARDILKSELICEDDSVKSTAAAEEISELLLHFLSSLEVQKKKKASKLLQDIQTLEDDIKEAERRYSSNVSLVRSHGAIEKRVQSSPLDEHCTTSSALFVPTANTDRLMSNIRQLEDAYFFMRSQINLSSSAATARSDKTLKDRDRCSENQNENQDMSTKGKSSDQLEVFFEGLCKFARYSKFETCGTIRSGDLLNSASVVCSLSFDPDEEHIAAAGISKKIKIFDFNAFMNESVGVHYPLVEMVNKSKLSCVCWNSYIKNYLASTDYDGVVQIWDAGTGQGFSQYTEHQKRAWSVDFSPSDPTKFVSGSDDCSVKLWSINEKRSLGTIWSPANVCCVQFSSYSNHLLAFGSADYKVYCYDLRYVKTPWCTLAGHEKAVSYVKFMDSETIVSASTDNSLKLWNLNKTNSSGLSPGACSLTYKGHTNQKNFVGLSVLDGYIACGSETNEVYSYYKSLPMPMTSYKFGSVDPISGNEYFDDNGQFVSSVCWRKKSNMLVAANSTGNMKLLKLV
B2: Cryptochrome-2 (Arabidopsis thaliana (Mouse-ear cress)), Q96524 (parent)
chain: B1 chain
partner: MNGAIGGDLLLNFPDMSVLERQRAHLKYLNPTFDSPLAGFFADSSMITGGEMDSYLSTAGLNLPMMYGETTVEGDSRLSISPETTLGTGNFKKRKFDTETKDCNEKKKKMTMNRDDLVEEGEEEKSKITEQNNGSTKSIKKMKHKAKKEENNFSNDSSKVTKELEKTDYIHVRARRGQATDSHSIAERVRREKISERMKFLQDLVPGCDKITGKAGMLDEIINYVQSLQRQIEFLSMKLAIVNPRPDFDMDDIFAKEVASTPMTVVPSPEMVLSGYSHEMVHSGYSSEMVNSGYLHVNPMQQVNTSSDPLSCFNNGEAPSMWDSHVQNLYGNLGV

Variants of: B1
Details: with spa1_arath SPA1, Q9SYX2

Row | Variant | effect of a mutation on the interaction
1 | W374A | increasing interaction strength

Variants of: B2
Details: with bh063_arath BHLH63, Q8GY61

Row | Variant | effect of a mutation on the interaction
2 | W374A | increasing interaction strength
3 | D387A | disrupting interaction strength
